Data reported in article doi:10.1101/2023.08.28.555152.
Like-named read-outs stand apart in the source and are kept apart here.

Assays:
Assay in all cases: MST
[1] = target: FITC-labeled IST1 (recombinant full-length IST1)
[2] = target: FITC-labeled IST1 (recombinant full-length IST1); remark: listed apart in the source
[3] = target: FITC-labeled IST1 (recombinant full-length IST1); remark: listed apart in the source

B1: CHMP1B (recombinant full length) (natural protein)
chain: MSNMEKHLFNLKFAAKELSRSAKKCDKEEKAEKAKIKKAIQKGNMEVARIHAENAIRQKNQAVNFLRMSARVDAVAARVQTAVTMGKVTKSMAGVVKSMDATLKTMNLEKISALMDKFEHQFETLDVQTQQMEDTMSSTTTLTTPQNQVDMLLQEMADEAGLDLNMELPQGQTGSVGTSVASAEQDELSQRLARLRDQV
Kd [1]: 153 µM | Kd [2]: 9 µM | Kd [3]: 20.3 µM
